# Measurements reported in the RNAGym collection of RNA variant scans (doi:10.7554/elife.90254).
# B1: OR4K15 (parent)
# chain: GUUAACGGUCAUAGGCCAUGGAAACUAGGAGCACCAUUUCGCUGCCAGUGAAGAAAUGAACAAAGAAAAUCUGGGCCAGGCAGGCAUCAAAAGAAAUAGUCUUGCGCUCAACCAGAAAGUCUGUAAUCAUUUUAAGGGUA
# Variants of: B1
# Assay: self-cleavage, relative activity (ratio to wild type); higher = more cleavage; in vitro, sequencing; the parent is a self-cleaving ribozyme
row,Variant,self-cleavage
1,U122C G123A,1.6
2,A117U A125G,0.99
3,A125U U127C,1.28
4,A117G U122C,1.05
5,A116U A134U,0.33
6,U120A A126G,1.64
7,A116U A118G,0.07
8,U122C U132A,0.43
9,U122C U132C,0.49
10,C121A G137A,1.87
11,A118G G137A,0.86
12,A118G A126G,0.83
13,C121A U132A,1.42
14,U120C A125G,0.43
15,U120C A125U,1.38
16,A117G A134G,0.61
17,A126C U130C,0.47
18,A116U U131C,0.11
19,A125U U131C,2.47
20,A116U,0.23
21,A117G A126G,1.27
22,U120A U127C,1.67
23,U124C U131C,0.8
24,A118G U122A,0.79

row,Variant,self-cleavage
1,A118G U120G,0.59
2,A118G U120A,2.61
3,G119A U122C,1.11
4,A116U U122C,0.21
5,U124A U127C,0.65
6,A117G U124C,0.69
7,A117U U133C,1.23
8,U124C U130C,0.57
9,U124C U130G,0.87
10,U122A A125U,2.05
11,U124C A140G,0.57
12,A116G U131G,0.3
13,A116G U131C,0.27
14,U120C U131C,0.85
15,A126G A129G,0.97
16,A116G U139C,1.17
17,U122C A129U,0.49
18,U122C U127C,0.25
19,U120C C128A,0.69
20,U124C U127C,0.84
21,U124C A125G,1.32
22,A118U U131G,0.62
23,U124C A135G,1.33
24,U124C A135C,0.06

row,Variant,self-cleavage
1,A125G U127A,1.11
2,A125G U127C,0.27
3,A117U A118G,0.97
4,A117U A118C,0.51
5,U120G U130A,1.2
6,U120A U130A,0.54
7,A117G U130C,0.39
8,A117G U130A,0.26
9,U122C C128A,0.38
10,A117U U131C,1.01
11,A117U U131G,1.38
12,U124A U133G,0.43
13,A117G A125G,0.66
14,A116U U120C,0.15
15,A116G U130A,0.51
16,A118G U139G,0.07
17,A117G C128A,1.07
18,U120A U132C,1.37
19,G119C U132C,1.13
20,U122A U133C,2.07
21,U122A U133A,1.43
22,A117U A129U,0.62
23,A125C A126G,0.12
24,A117U U130C,1.05

row,Variant,self-cleavage
1,U120G,1.31
2,U120A,1.61
3,U120C,0.8
4,U120A U133A,1.81
5,C121U U127C,1.46
6,A118U U122A,1.08
7,A125G A135U,0.54
8,U120C A126U,0.57
9,U120C G136A,1.65
10,A118U A126G,0.17
11,A117U A126G,0.89
12,U120C G138U,2.11
13,U120C U127C,0.43
14,A118G U133C,1.23
15,U124C A126G,0.48
16,U122C A126U,1.12
17,U122C A135G,1.24
18,U122C A135U,1.06
19,U122C U139A,1.1
20,A125G A129U,0.01
21,A118C U132C,0.57
22,A125G A126G,0.68
23,U120A A140U,1.67
24,U120A A140G,1.13

row,Variant,self-cleavage
1,A116U U133C,0.21
2,A118G A125G,0.1
3,A118G A125U,1.22
4,U120A U124C,1.04
5,A116U A126U,0.21
6,A117G U120C,0.23
7,A117C G136A,0.78
8,A116U A129U,0.29
9,U124A U132C,0.13
10,A116G U132C,0.54
11,A126G A134G,1.17
12,U122C A125C,0.72
13,U122C A125G,0.38
14,A125G U132A,0.32
15,A125G U132C,0.52
16,U122C U124C,0.67
17,A118C U130C,0.93
18,U122C A140G,1.32
19,U122C A140U,1.13
20,U122G A129U,1.75
21,A117G G138C,2.13
22,A118U A125G,0.86
23,A118U U130C,0.4
24,U122C U133A,0.52

row,Variant,self-cleavage
1,U122C U133C,2.05
2,U122C A134U,1.75
3,U122C U131C,1.13
4,U122C U131A,1.25
5,U122C U131G,0.88
6,U120C A129G,0.63
7,A125U A126G,1.04
8,U124C U132C,1.13
9,A117U A135G,0.7
10,U120C U130A,0.71
11,A117G A118G,0.59
12,A117G A118U,1.72
13,A125U A140G,1.42
14,U122A A129G,1.38
15,U120C U122A,0.26
16,U120C U122G,2.61
17,A125G A140G,0.69
18,G123U U130C,0.44
19,G123A A126G,1.34
20,U122C,0.93
21,U122A,1.21
22,U122G,2.57
23,A118G A140U,1.28
24,A118G A140G,1.32

row,Variant,self-cleavage
1,A118U U120A,1.68
2,A126C U132G,0.89
3,A117G U131C,1.15
4,U120A A135G,1.1
5,A118U U139A,0.6
6,U124A U139C,1.26
7,G123A A135G,2.16
8,A118U U127C,0.02
9,G119C,1.04
10,G119U,1.82
11,G119A,2.29
12,U124G A125G,0.6
13,U124G A125U,1.25
14,A118G A134U,1.03
15,A117G U127A,2.7
16,U122A U132C,2.13
17,G119A A126G,1.98
18,U122A A135G,2.11
19,A125U A134G,1.48
20,U120C A135C,1.51
21,U120G U139A,1.61
22,U122C G138U,1.37
23,A116U U127C,0.23
